Results taken from the supplement of paper PMC9170038.

system: K4 kissing-loop RNA reporter; assay: apparent KD of K4 kissing-loop reporter; higher = weaker reporter binding; settings: Eterna round: R107; input ligand: theophylline 20 uM
Description: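 RNA-MaP round R107: designed RNA switches with theophylline, tryptophan, arginine or FMN aptamers are transcribed on-chip within common flanks. They are titrated with a labelled K4 kissing-loop RNA reporter in RNA-MaP buffer (100 mM Tris pH 7.5, 80 mM KCl, 4 mM MgCl2), without ligand or with the indicated ligand. Median apparent KD per design.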
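Further: bound reporter read as fluorescence of individual clusters on recovered sequencing chips by microscopy, with normalized cluster intensities fitted with a binding model.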

| Sequence | apparent KD of K4 kissing-loop reporter [nM] |
| --- | --- |
| UAAUCCUAAUGAUAAUAAUCAAGUGGUGGACGAGGACCGGUACGGCCGCCACUCGAAAAUGCAGUGAUGUUGUAAUACGGAUAAU [Exclusion - Tryptophan A (Freestyle 3)] | 541 |
| GGUAGCAUGGCGGCCGCCACUUUUACUGGAUCGGAAACGAUCCAGUAUUGUGUAGUGAUGUUACAAAGGACCGGGCCAUGCUACC | 189 |
| UUUUGCUAGCGAAACGCUAGCUUAACAGAUACCAGUCGCGAAAGCGACCCUUGGCAGCUGCUGAGUGAUGUUCAGGUGAGAGUUA | 301 |
| UGACUGGACUGAAGGAGCGCUAAACUCCUAGUGAUGUUAGGGAAACAAGACAAAGUCUUGAGGCAGGUAGGUCGCAGUCUAGUCU [FiskerMod 3 - Jieux - Same State - Arginine B] | 272 |
| AAAGUGUCAGCACGAGUGAUGUUCGUGGAUACCAGCCUCGAUAAAGGCCCUUGGCAGCCGAAAAGUCAAGGGCUGGCACAUAAAA [KL-XTheo-A11] | 341 |
| CGCGCGUGAGGACUUGCCCUUCAUGGAGAUACCAGCCAGUAUGCGGGCCCUUGGCAGCUCGAGUGAUGUUCGAGUUUAAGGCAAA [Riesla] | 114 |
| GCUAUGGUAGGAAGGAGCGCUGCCUUGUUUUUACGAGUGAUGUUCGGAAGCAGGGUGUUAAAGCAGGUAGGUCGCCUACUAUAGC [Arginine B K4 23] | 172 |
| AAAUAAAUCAGAGGAUAUUCUUCCCACGUCGAAGUACCGUGCUUGAUGGAGUGAUGUUCGAUCAGAGAAGAAGGCUGAUAAAUAA [Same State FMN B GF 19] | 621 |
| UAUUAAGUGACGGCCGCCACUAUGGUGAUUUAUUUGUUUGAGUGAUGUUUUGAUGUUUGAUUUUGUAGGACCGGGUUAUGUGUUA [ttttcmullin] | 752 |
| AAACGUUGUUGCGAUACCAGCUGAUCGGAAACGAUCAUGCUGGAGUGAUGUUCCAGGAAAAGCCCUUGGCAGCGCAACGACGAAA [MAT - Same State Theophlline B - Mod of Eli - D30] | 296 |
| CUUGGAAGGACGGCCGCCACUCGACAGUGAUGUUGUCCGAGUGGGUAGCGCAGUGAUGUUGUGUCGAGGACCGGGUCCUAGGAAU [Exclusion Tryptophan B GF 27] | 155 |

same assay, conditions: Eterna round: R107; input ligand: tryptophan 2.4 mM

| Sequence | apparent KD of K4 kissing-loop reporter [nM] |
| --- | --- |
| GAUUAAUAAGAGGAUACCAGUACUAAUAAAGUACAUUAAUAGUAGAGUGAUGUUCUAUAGUACCCUUGGCAGCUUAGAGUAAGUU [#09 K4 Theophylline B Exclusion] | 103 |
| CGUUUAUAGCAGGAUACCAGUACCCAUUAUGUACGUUAAUAGUAGAGUGAUGUUCUAAAGUACCCUUGGCAGCUUCCCGUGACCC [ExTheophylB.Y] | 94.7 |
| GCGCGUCAUGUCAGCGGUGACACUGUCGAUACCAGUGCCGUAAGGCGCCCUUGGCAGCGACGUGCUGGAGUGAUGUUCCAGCGUU [#2 Exclusion - Theophylline A Attempt #31 (HarryS)] | 146 |
| AAUUUACAUUAAUUAUUUAAAGGUUCAGAAGGAGCGUGAAUUAACACAGGUAGGUCGCUGAGCGAGUGAUGUUCGCUAUAUACUA [JR_ExcArginiA_Sub003] | 49.4 |
| AGAUUCGACACGGCCGCCACUCGUGGAUCUUGGUUGAGAGAUGAAAUAGAGUGAUGUUCUAAUACGAGGACCGGGUGUUGAGUCU [KL-SSTryp-B23] | 174 |
| GUGUGUGAAAACACGCACUUAUAUCCUAGGCAGGAUAUGCGGAAACGCAGAAGGGCCACCGGCGAGAAAAUCCAGUGAUGUUGGA [Ex FMN A 6] | 251 |
| ACGUGCACGAGUGAUGUUUGAAAAUCUGAAGGAGCGGGCGAAAGCCCAGGUAGGUCGCAGAAUAGCACGAGCCACGAAAGUGGCA | 191 |
| UAGGAGUGAUGUUCCAUAUCUUGAGCCGAAGGAGCGCCUUUCUAGGCAGGUAGGUCGCGGCAGAAGGUACCAGUGAUGUUGGAAA [Same State Arginine A GF7] | 145 |
| UUAUAAUUCAGUGAUGUUGAAAAUAUAACAGAGGAUAUGCGUUUAAGCAGAAGGCUGAAAUACUAUACUUUAAUCUAUUAAAUUU [JR_SSFMNA_Sub019] | 212 |
| CACAGAUCCUAAGGAUAUGGAGUGAUGUUCGCAAGUUCUUGGUGUGCAUUCAUCUGUCCUAUCAACCCAGAAGGUAGGAAGUCAC [theeternabot_exclusion_KL_FMN_B_1] | 604 |
| UGUCAUUGGUCUGAUACCAGUUGAUAAACUGGAGUGAUGUUCCUCGACGAAUACGUCGACAACCCUUGGCAGCAGACCGAUGACU [TheoBS 14 #SwitchBubble 13 #StaticStem] | 607 |
| GUGAGGAUCAGAAGGAGCGUCGGCAAUCCAGUGAUGUUGGGUGUUGGUUAUAUUUAACGACGACAGGUAGGUCGCUGAUUUUCAA [Same State Arginie B GF 21] | 140 |
| UGACUACAAAAGGAAUAAUCCUAGUGAUGUUAGGAUAUGCUGAUAAGCAGAAGGAACGGAGAUCGAAGGAUCUCAUAUGUAGUCU [whbob_Ex_FMNA__2th193] | 89 |
| GUAUGUUCGAAAGAACGUACAUCUUCGGAAGGAGCGCGUGAAAACGCAGGUAGGUCGCCGAAGUUAUUAGGUAGUGAUGUUACCU [Arginine A K4 8] | 114 |
| AAAGAUCUUCUAGAAACUAGAAGAUCAAGAGAGGAUAUCCGAAUUCGGAGAAGGCUCACUAAGUGAUGUUUGGACCCAAAGGGAA [AK3 SS FMN A] | 1030 |
| AGUGAUGUAUGGCGGUUUGUCACUUAUAAUCAGGAUAUAUAAACAAAUAGAAGGGAUGGCGGAGUGAUGUUCCGCCGGCCGCCAU [FMN A Exl V5] | 149 |
| AUCGUUGUCUGAGGAUAUCGGUUAUCUGUAGUGAUGUUACAGUAUAUUGAUAUUAAAGUUUCUAUUCGAGAAGGCAGACUACGUA [JR_Nu_ExcFMNB_Sub022] | 71.9 |
| CAUGUGUCUAUUACGAUGGAUACAUAUACUGAGGAUAUCACAUUUAUGAGAAGGCAGUAAACUGCGAGUGAUGUUCGCAGUACGU [FMN A SS t8] | 248 |
| AUGGUAUUGCGAGGAUAUCCUUCAAACGUGACACUAACGGCAGUGAUGUUGCCGGCGUCGAUCAGAGGAGAAGGCGCGGUGUUAU [Exclusion FMN B GF 23] | 119 |
| GCCAGUGCGCGAAGGAGCGCCGUGACAGGUUACUGCCUUGGGCAGUGAUGUUGCUCAAUCUGGCAGGUAGGUCGCGUGCACUGGC | 197 |
| GUGCAGUGAUGUUGCACGAGGAAAGACGAUACCAGCCGUAAAUAUGGCCCUUGGCAGCGUGGGCUAGCACAAAAUGUGCUAGUCU [Zareatza] | 98.2 |
| AAACGCUUGAAUAACAAGCGAAAUAAAAUUCGAGGACCGGUACGGCCGCCACUCGGGCUAACUGCGAGUGAUGUUCGAAAAUAAA [Mat - Mod of OpenEnded 3 - D17] | 73.2 |

| Sequence | apparent KD of K4 kissing-loop reporter [nM] |
| --- | --- |
| GCCGUACGCAUGGAUACCAGUUGCGAAGUGAUGUUUCGGGCGAUCAAAGGAUCGCCAGACAACCCUUGGCAGCCAUGCGUACGGC | 674 |
| GCCGUACGCAUGGAUACCAGAGAUGUUAAUCUCGAUGCCAGUGAUGUUGGCUUUAGCUAUCUCCCUUGGCAGCCAUGCGUACGGC | 1000 |
| UUAGAGAUCUCAGGAUAUCAGUGAUGUUGGUUGCCAGAUCUGAGAUAGAAUUCUAUCUCAGAUCAAUGAGAAGGGAGAUCUCAUU [AK4 Exc FMN B] | 282 |
| AUCAGUUCAGCUGAUACCAGUCAGGAGUGAUGUUCCUGCUCGCGUCAGCCGCGUCGACAAGACCCUUGGCAGCAGCUCUAAGUGU [theeternabot_exclusion_KL_Theo_B_40] | 110 |
| UGAUAGGACAGAAGGAGCGGGAGUGAUGUUCCCAAAGGAAGGUCUAGCAAAGCUGGACCCUCCCAGGUAGGUCGCUGUCCUAUCU [ArgBX 4 #SwitchBubble #StaticStem] | 118 |
| AGACUACCACACUGUCAAUAGACAGUGAACUAGGAUAUGCUGAUAAGCAGAAGGAGUGAUGUUCCUAAUAAGGUAGUCAUAUAAU [FmnAX 15 #SwitchBubble #StaticStem #K4Early] | 503 |
| AGGUCUGCACGAAGGAGCGCCCUGACAGGUUGCUGCCGUGGGCAGUGAUGUUGCUCAGUCCGGCAGGUAGGUCGCGUGCAGACCU | 161 |
| UGAUCUCGGCAGUGAUGUUGCAUAUGAGAAGGAGCGCACGAAAGUGCAGGUAGGUCGCUCAGCCACGACGAAAGUCGCGAGAUCU [#SwitchBubble 3 #K4Early] | 129 |
| UUUCGUUUCGUCUGACAUAAUUGGCUAGAAGGAGCGGUAAAAUUACCAGGUAGGUCGCUAGCCCAGUGAUGUUGGGACUAGCGUA [Edries] | 125 |
| UGACUGGACUGAAGGAGCGCGAACUCCUAGUGAUGUUAGGAAAUACGAGACAAAGUCUCGACGCAGGUAGGUCGCAGUCUAGUCU [ArgBS 15 #SwitchBubble #StaticStem] | 98 |
| UAAUCCUAAUGAUAAUAAUCAAGUGGUGGACGAGGACCGGUACGGCCGCCACUCGAAAAUGCAGUGAUGUUGUAAUACGGAUAAU [Exclusion - Tryptophan A (Freestyle 3)] | 247 |
| GGUAGCAUGGCGGCCGCCACUUUUACUGGAUCGGAAACGAUCCAGUAUUGUGUAGUGAUGUUACAAAGGACCGGGCCAUGCUACC | 167 |
| UUUUGCUAGCGAAACGCUAGCUUAACAGAUACCAGUCGCGAAAGCGACCCUUGGCAGCUGCUGAGUGAUGUUCAGGUGAGAGUUA | 312 |
| UGACUGGACUGAAGGAGCGCUAAACUCCUAGUGAUGUUAGGGAAACAAGACAAAGUCUUGAGGCAGGUAGGUCGCAGUCUAGUCU [FiskerMod 3 - Jieux - Same State - Arginine B] | 225 |
| AAAGUGUCAGCACGAGUGAUGUUCGUGGAUACCAGCCUCGAUAAAGGCCCUUGGCAGCCGAAAAGUCAAGGGCUGGCACAUAAAA [KL-XTheo-A11] | 226 |
| CGCGCGUGAGGACUUGCCCUUCAUGGAGAUACCAGCCAGUAUGCGGGCCCUUGGCAGCUCGAGUGAUGUUCGAGUUUAAGGCAAA [Riesla] | 108 |
| GCUAUGGUAGGAAGGAGCGCUGCCUUGUUUUUACGAGUGAUGUUCGGAAGCAGGGUGUUAAAGCAGGUAGGUCGCCUACUAUAGC [Arginine B K4 23] | 155 |
| AAAUAAAUCAGAGGAUAUUCUUCCCACGUCGAAGUACCGUGCUUGAUGGAGUGAUGUUCGAUCAGAGAAGAAGGCUGAUAAAUAA [Same State FMN B GF 19] | 338 |
| UAUUAAGUGACGGCCGCCACUAUGGUGAUUUAUUUGUUUGAGUGAUGUUUUGAUGUUUGAUUUUGUAGGACCGGGUUAUGUGUUA [ttttcmullin] | 597 |
| AAACGUUGUUGCGAUACCAGCUGAUCGGAAACGAUCAUGCUGGAGUGAUGUUCCAGGAAAAGCCCUUGGCAGCGCAACGACGAAA [MAT - Same State Theophlline B - Mod of Eli - D30] | 179 |
| CUUGGAAGGACGGCCGCCACUCGACAGUGAUGUUGUCCGAGUGGGUAGCGCAGUGAUGUUGUGUCGAGGACCGGGUCCUAGGAAU [Exclusion Tryptophan B GF 27] | 137 |
